# Test results published in publication PMC5364480.
# Key:
# SOC1 [1] = target: SOC1 (UniProt O64645); test: two-hybrid; pGADT7 AD and pGBKT7 BD vectors co-transformed into yeast Y187; quantitative β-galactosidase assay with ONPG (Miller units)
# …3 (Arabidopsis) = …3 (Arabidopsis) (UniProt O22456); test: as above
# FLC [2] = target: FLC (UniProt Q9S7Q7); test: as above
# FLC [3] = target: FLC (UniProt Q9S7Q7); test: yeast two-hybrid; conditions: p>0.05 (open symbol); parent: 1; read off a plot
# FLC, SEP3 and SOC1 = test: two-hybrid; pGADT7 AD and pGBKT7 BD vectors co-transformed into yeast Y187; quantitative β-galactosidase assay with ONPG (Miller units)
# SOC1 [4] = target: SOC1 (UniProt O64645); test: yeast two-hybrid; conditions: p>0.05 (open symbol); parent: 1; read off a plot
# Sequence of FLC (Q9S7Q7 whole entry): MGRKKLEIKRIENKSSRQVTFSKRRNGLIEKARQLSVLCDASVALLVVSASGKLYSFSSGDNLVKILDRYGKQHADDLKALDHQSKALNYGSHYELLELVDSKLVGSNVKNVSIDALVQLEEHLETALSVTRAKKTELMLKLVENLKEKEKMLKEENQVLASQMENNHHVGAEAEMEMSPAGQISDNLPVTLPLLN
# Sequence of …3 (Arabidopsis) (O22456 whole entry): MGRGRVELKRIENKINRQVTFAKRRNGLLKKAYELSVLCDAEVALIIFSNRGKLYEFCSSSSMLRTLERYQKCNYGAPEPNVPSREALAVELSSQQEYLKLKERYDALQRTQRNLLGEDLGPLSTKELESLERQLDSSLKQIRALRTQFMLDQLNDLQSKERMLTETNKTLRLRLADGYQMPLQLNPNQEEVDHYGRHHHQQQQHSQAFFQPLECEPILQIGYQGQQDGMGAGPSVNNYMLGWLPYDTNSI
# Sequence of SOC1 (O64645 whole entry): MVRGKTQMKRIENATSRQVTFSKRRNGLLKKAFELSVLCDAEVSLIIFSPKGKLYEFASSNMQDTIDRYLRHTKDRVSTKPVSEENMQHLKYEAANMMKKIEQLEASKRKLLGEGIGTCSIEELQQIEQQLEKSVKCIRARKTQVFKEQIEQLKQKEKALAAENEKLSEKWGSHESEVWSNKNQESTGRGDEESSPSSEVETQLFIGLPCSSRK
substance,measurement,setting,value
SVP C-domain insertion 220–221 YD (from UniProt Q9FVC1 1-240) (natural protein),percent decrease of binding against wild-type SVP,SOC1 [1],28%
same,percent decrease of binding against wild-type SVP,…3 (Arabidopsis),22%
SVP Q127R (from UniProt Q9FVC1 1-240) (natural protein),percent increase of binding against wild-type SVP,SOC1 [1],40%
same,percent decrease of binding against wild-type SVP,…3 (Arabidopsis),73%
same,percent increase of binding against wild-type SVP,FLC [2],40%
SVP ins80M (from UniProt Q9FVC1 1-240) (natural protein),percent decrease of binding against wild-type SVP,…3 (Arabidopsis),64%
same,percent decrease of binding against wild-type SVP,FLC [2],64%
SHORT … PHASE (from UniProt Q9FVC1) ins220Y-221D,ratio to parent,FLC [3],1.1
SVP Del89V (from UniProt Q9FVC1 1-240) (natural protein),percent decrease of binding against wild-type SVP,SOC1 [1],86%
same,percent increase of interaction strength against wild-type SVP,…3 (Arabidopsis),6%
same,percent decrease of binding against wild-type SVP,FLC [2],44%
SVP with the unique C-domain insertion 176–196 deleted (from UniProt Q9FVC1 1-240) (natural protein),percent decrease of binding against wild-type SVP,"FLC, SEP3 and SOC1",84 to 95%
"SHORT … PHASE, Q9FVC1 ins80M",ratio to parent,SOC1 [4],0.94
